Measured values published in the DeepSol protein solubility set.

Experiment: soluble on expression in E. coli; label from the status in PepcDB or PDB records

| Sequence | soluble on expression in E. coli |
| --- | --- |
| MKIVIGTKIKEQRQQHEWSQQTVAERLHVSRQTISKWELGKSYPDLELLVALSKLFSVSTDELLGLSRRPVQRPWWQLLLRKRSRTDMTVKWYSGGQDRARVAVGIISDLVANLNTTNEQPLRQLLATYYQELLEQRTGSVLGVFDRMNLDISKCLRQQQIKLSPENEQLMQQLVGLNMIYYR | not soluble |
| MKKEHSPKNKVRHFASVEHLNPEAVAAFVDNELSPAAAHRAKIHLVHCAECREEIHRQRRAADRLRDGNNSDMRPSSDLIAKLQSIAACCPDGPTAEEVPSSPQSLLDKLDGVARNIYKTTKTLREARNEALRQYDR | not soluble |
| MKKGLTFSITSAALFFGMNHVASADQIHTVKEDAKLTDIAQTFATTTTEIQNLNHLQNRDYVQVGETIVLPDSDIVEVKDGDTIKAIAERHQMTMNQLYQLNPNLGEVIYPGQLVAVSEKGSAHLNNQLQQIFNSHEAVQPTAQINDDERNKAENNTIRNVRTSGNITPSATQTWQNNDYSASDRQQVSNTTANEQVTSNYQYSPVSHASNGSNYYDWGQCTYYAFDRRQQLGKSVGNLWGNANNWASAAQQSGYQVNNTPEVGAIFQSTAGNYGHVGVVESKNADGSIVVSEMNWQGVGQKSYRTIHNTGQYNYIHLEHHHHHH | not soluble |
| MKKHIIIKTIPKKEEIISRDLCDCIYYYDNSVICKPIGPSKVYVSTSLENLEKCLQLHYFKKLVKNIEIFDEVHNSKPNCDKCLIVEIGGVYFVRRVNGVPR | soluble |
| MKKILLSAAVLLLSLGTYAQNNPTSLPTDIRIKKVVYRENDVIPVHGIPFTTTQIQFAKQERVLDIEGGDTTAWMVTYHPQLENMIFIKPTMFDSKTNMTVITNQRAYYFSLTSAKKLEQEPGKKTYALKFEYPQPQPVNTKNTTPNKTVHPKVVNTAYRFSGSPQLVPRHVFDDGKFTYFELSAQGSVPAIFAVDDQSGKESTVNTRREGKFIVVQRLAPQFTLRQGGLTASVFNTPEINRIRANRRPK | not soluble |
| MKKKDRYTISELAREFEISTRTIRYYEEIGLLNPERTPGNQRIFSRKDRAKLKLILRGRRLGFSLEEIREMIEMYDVAGEPEQIRLTLKYGEKKLKEIEEKIRELELLKEDLLNLREMLVKRLEELEKGS | not soluble |
| MKKQKKARLIYNPTSGQEIMKKNVAEVLDILEGFGYETSAFQTTPTKNSARDEATRAAQAGFDLIVAAGGDGTINEVVNGIAPLKRRPKMAIIPTGTTNDFARALKIPRGNPIEATKLIGKNQIVKMDIGQAQEDNYFINIAAAGSLTELTYSVPSQLKTTFGYLAYLAKGVELLPRVRKVPVKITHDKGEFIGDASMIFVAITNSVGGFEQIAPDAKLDDGKFTLILVKTANLIEIMHLIRLVLAGGKHINDKRVEYIKTSYLTIEPLSDERMMINLDGEYGGDAPITLANLKNHIRFFANTDEISDDALVLDKDELAIEAIAQKFANEVDDLEGLGD | soluble |
| MKKRAACLCFRSEREDEVLLVSSSRYPDRWIVPGGGMEPEEEPGGAAVREVYEEAGVKGKLGRLLGVFEQNQDPEHRTYVYVLTVTELLEDWEDSVSIGRKREWFKVEDAIKVLQCHKPVHAEYLEKLKAHHHHHH | soluble |
| MKKRALVSVSDKTGVVEFVKGLLEQGIEVISTGGTKKLLEENGLQVIGISEVTGFPEIMDGRVKTLHPNIHGGLLAVRDNETHVAQMNELGMEPIDFVVVNLYPFKETIAKPDVTFADAIENIDIGGPTMIRSAAKNHKFVSVIVDPVDYDVVLAELKENGEVAEETKRKLAAKVFRHTAAYDALISNYLTEQMGEESPETLTVTFEKKQDLRYGENPHQKATFYKAPFAATSSVAYAEQLHGKELSYNNINDADAALSIVKEFTEPAVVAVKHMNPCGVGVGTDIHEAYTRAYEADPVSIFGGIIAANREIDKATAEKLHEIFLEIIIAPSFSKEALEVLQSKKNLRLLTVNIEKATSASKKLTSVQGGLLVQEEDTLSLDESTISIPTKREPSEQEWKDLKLAWKVVKHVKSNAIVLAKDDMTIGVGAGQMNRVGSAKIAITQAGEKAQGSALASDAFFPMPDTVEEAAKAGITAIIQPGGSIRDEDSIKVADTYGIAMVFTGVRHFKH | not soluble |
| MKKREVIASVKDEKLVKKRRNEMIKGAISLFKQKGFHQTTTREIAKASGFSIGTLYEYIRKKEDVLYLVCDRIYDEVRERTEQDLGAHHGTIEGLRRAIAHYFRVVDELDDEVLVMYQEVKALSKESLPYVLNKELDMAAIFEHILRACVENGALQLSESEIRLFAHNIVVLGQMWAFRRWVLRKMYTLDEYIELQTEFLLKGIMEKQRV | not soluble |
| MKKSSLNNLEYLDISQEVNALQVPNTPFLSYLLGAGKVEAAKSTEIKWREYGMNNDDSSAQLEGGEYADAESDRTWFNNYTEIFRKSTSVSGTLDAINVDGVGNELNSQVALRATEMKIDLNRKLIVGVKADESGSKGRQMNGILNLISSTNKVETAAAGAVTRKDIDALFKTMFQKGYMGEKLCLVAPDMQELMIDQLDEKSTKIVQFGDKLTFGLQLGNIVSNYGSGIALIEPNLPNGTIAAIDTNYVKLRPLREWRAEELAKTTDSRRIGLVGEYSIEYKASNSGAILNLKA | not soluble |
| MKKVQPLNPEQVKRFLETAKQDPLYPAFLLALGTGLRRGEILGLRWQDLDLQKGILQVRQSLIRTREGLKFEEPKTEKSRRQIPLPPSVVAALKRHKAWVNQNKLILGPDYEDHDLVFPVENGRPRDPKGFAEYFNRLLDKAGLPHIRLHDLRHTHATLLLLEGVHPKVVQERLGHSTVSITLDIYSHILPGLQEKAAERIDGLLQPKENPSPKEGTIKLEHHHHHH | soluble |
| MKKVRDPLEVTVVGQNIIVADDNYKWLQILPEKKRYSITVMFDNKGNPLEYYFDINIKNITQKGNARTVDLCLDVLALPSGEYELVDEDDLMFALESEQIT | not soluble |
| MKKWFLLLIASLVGYIAYEDLTVGTLPASSKTPVVRENIGIPAYKVIKIKAGDTLLSIAEREQQGPLPVSIETLIRDFEKLNPEAKADALQIGKTYKIPVYEK | not soluble |
| MKKWLALFVFGMVSLFATSAHAESYETTKTLKVYESRSFNSPVKKELQPGERVYVTNQHPSGWWKISGGFIAPEGAKVEINRTFEAFDWINMDSAKYVFSPQTVIARDGTLRGEILIDTYLGQKWTSVNGMPQIMKQNFAAYSSPEAKNPDAWFAPQTVNILQTKENGWSLINTYLGPKWIVRYPHVEHINRDFYAYNEPKYMHHGVKFSAQSVRVLQQGENGWKKIKAEVGEKWIAPQGSYYHVPNVFTAFDQPFGRAIGTFAPQTVFVVEESTTSFGWLKIRTYLGDSWIRTNRN | not soluble |
| MKKWLLAAGLGLALATSAQAADKIAIVNMGSLFQQVAQKTGVSNTLENEFKGRASELQRMETDLQAKMKKLQSMKAGSDRTKLEKDVMAQRQTFAQKAQAFEQDRARRSNEERGKLVTRIQTAVKSVANSQDIDLVVDANAVAYNSSDVKDITADVLKQVK | soluble |
| MKKYYVRCKDSKGENASLVIEALSPEHAKEQAYEVYEVGDIYNVSLGEGKSKNCLDRKYSPYIKNDNGKAITIFSLEHHHHHH | not soluble |
| MKLIFLSGVKRSGKDTTADFIMSNYSAVKYQLAGPIKDALAYAWGVFAANTDYPCLTRKEFEGIDYDRETNLNLTKLEVITIMEQAFCYLNGKSPIKGVFVFDDEGKESVNFVAFNKITDVINNIEDQWSVRRLMQALGTDLIVNNFDRMYWVKLFALDYLDKFNSGYDYYIVPDTRQDHEMDAARAMGATVIHVVRPGQKSNDTHITEAGLPIRDGDLVITNDGSLEELFSKIKNTLKVL | soluble |
| MKLLKVAAIAAIVFSGSALAGVVPQYGGGGGNHGGGGNNSGPNSELNIYQYGGGNSALALQADARNSDLTITQHGGGNGADVGQGSDDSSIDLTQRGFGNSATLDQWNGKDSHMTVKQFGGGNGAAVDQTASNSTVNVTQVGFGNNATAHQY | not soluble |
| MKLMAQLGKLLKEQKYDRQLRLWGDHGQEALESAHVCLINATATGTEILKNLVLPGIGSFTIIDGNQVSGEDAGNNFFLQRSSIGKNRAEAAMEFLQELNSDVSGSFVEESPENLLDNDPSFFCRFTVVVATQLPESTSLRLADVLWNSQIPLLICRTYGLVGYMRIIIKEHPVIESHPDNALEDLRLDKPFPELREHFQSYDLDHMEKKDHSHTPWIVIIAKYLAQWYSETNGRIPKTYKEKEDFRDLIRQGILKNENGAPEDEENFEEAIKNVNTALNTTQIPSSIEDIFNDDRCINITKQTPSFWILARALKEFVAKEGQGNLPVRGTIPDMIADSGKYIKLQNVYREKAKKDAAAVGNHVAKLLQSIGQAPESISEKELKLLCSNSAFLRVVRCRSLAEEYGLDTINKDEIISSMDNPDNEIVLYLMLRAVDRFHKQQGRYPGVSNYQVEEDIGKLKSCLTGFLQEYGLSVMVKDDYVHEFCRYGAAEPHTIAAFLGGAAAQEVIKIITKQFVIFNNTYIYSGMSQTSATFQL | soluble |
| MKLPGPDHPISITANPNGVRISADGKVIAETRRALTLQEASYPPVQYIPREDADMRLLEKTARVTHCPYKGDASYFSIVAGGEPQANAVWSYENPFPAMAEIAGYLAFYPQKVQTEEFKP | not soluble |
| MKLTLEEGTSLVGYVRNVIKQYLKGEEPDIQKYPDKFNNVFGVFVSLHTHPEHDLRGCIGIPEPTMSLIDAIKETSISAAVHDPRFQPLKHSELKNTIIEVSVLTPPEDVEVEDSMEYLEKLEVGRDGLIIEFGPYRGLLLPQVATEYNWDTKQFLSNLCLKAGLPTTAWIEYDVKIKSFQAQVFEELIPNGPVVEKSTYTGCLEHHHHHH | soluble |
| MKLTLKNLSMAIMMSTIVMGSSAMAADSNEKIVIAHRGASGYLPEHTLPAKAMAYAQGADYLEQDLVMTKDDNLVVLHDHYLDRVTDVADRFPDRARKDGRYYAIDFTLDEIKSLKFTEGFDIENGKKVQTYPGRFPMGKSDFRVHTFEEEIEFVQGLNHSTGKNIGIYPEIKAPWFHHQEGKDIAAKTLEVLKKYGYTGKDDKVYLQCFDADELKRIKNELEPKMGMELNLVQLIAYTDWNETQQKQPDGSWVNYNYDWMFKPGAMKQVAEYADGIGPDYHMLIEETSQPGNIKLTGMVQDAQQNKLVVHPYTVRSDKLPEYTPDVNQLYDALYNKAGVNGLFTDFPDKAVKFLNKE | soluble |
